In the supplement of paper PMC7877785:
± gives the uncertainty stated by the source.

Assay: self-splicing fitness, log relative to wild type (ln ratio); higher = more splicing; Tetrahymena group I intron in knt gene, E. coli kanamycin selection, DiMSum; sequences stand for … in CUCUCU…GGAGGGAAAAGUUAUCAGGCAUGCACCUGGUAGCUAGUCUUUAAACCAAUAGAUUGCAUCGGUUUAAAAGGCAAGACCGUCAAAUUGCGGGAAAGGGGUCAACAGCCGUUCAGUACCAAGUCUCAGGGGAAACUUUGAGAUGGCCUUGCAAAGGGUAUGGUAAUAAGCUGACGGACAUGGUCCUAACCACGCAGCCAAGUCCUAAGUCAACAGAUCUUCUGUUGAUAUGGAUGCAGUUCACAGACUAAAUGUCGGUCGGGGAAGAUGUAUUCUUCUCAUAAGAUAUAGUCGGACCUCUCCUUAAUGGGAGCUAGCGGAUGAAGUGAUGCAACACUGGAGCCGCUGGGAACUAAUUUGUAUGCGAAAGUAUAUUGAUUAGUUUUGGAGUACUCGUGGUCG
Method in brief: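 DiMSum derived fitness as the error-weighted combination of fold changes across replicates, kanamycin versus no kanamycin, normalised to wild type. E. coli BL21(DE3) held the library, which randomised all eight P1ex-region intron nucleotides within the knt kanamycin-resistance gene on pET-22b(+). Six replicate transformations grew overnight at 37°C or 30°C on LB agar with or without 25 μg/mL kanamycin, also containing 100 μg/mL carbenicillin, 50 μM IPTG and 0.2% rhamnose, and pooled colonies were amplicon-sequenced on an Illumina HiSeq 2500.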

Row | Sequence | self-splicing fitness (ln) (30 °C) | self-splicing fitness (ln) (37 °C)
1 | CUGAAGCAAUAUUACGGCCC | -1.58 ± 0.48 | 
2 | GUAAAGCAAUAUUACGCUAA | -1.65 ± 0.087 | -0.135 ± 0.11
3 | GGGAAGCAAUAUUACGCGAA | -0.913 ± 0.14 | -0.969 ± 0.2
4 | CCAAAGCAAUAUUACGUAUC | -1.28 ± 0.11 | -2.76 ± 0.24
5 | UAACAGCAAUAUUACGCGUG | -0.718 ± 0.041 | 0.173 ± 0.055
6 | CACGAGCAAUAUUACGACCG | -0.0895 ± 0.089 | 0.125 ± 0.12
7 | GUAGAGCAAUAUUACGUAAC | -0.96 ± 0.11 | -0.246 ± 0.14
8 | CCCAAGCAAUAUUACGUAAU | -4.69 ± 0.17 | -2.97 ± 0.19
9 | UUCCAGCAAUAUUACGCAUU | -3.09 ± 0.17 | -0.682 ± 0.11
10 | GUGCAGCAAUAUUACGAAAA | -2.34 ± 0.19 | -2.49 ± 0.22
11 | GACUAGCAAUAUUACGCCGG |  | -1.67 ± 0.36
12 | UGCGAGCAAUAUUACGGGGU | -2.77 ± 0.2 | -3.12 ± 0.35
13 | GAAGAGCAAUAUUACGGCAC | -1.31 ± 0.12 | -0.934 ± 0.16
14 | CCGCAGCAAUAUUACGGAAA | -3.75 ± 0.3 | -3.29 ± 0.43
15 | GUCCAGCAAUAUUACGUCCC | -0.702 ± 0.12 | 0.424 ± 0.12
16 | UUAUAGCAAUAUUACGCAAG | -1.35 ± 0.16 | -1.89 ± 0.19
17 | CUUAAGCAAUAUUACGUUAA | -3.97 ± 0.39 | -2.63 ± 0.32
18 | UGCUAGCAAUAUUACGGCUG | -0.317 ± 0.15 | -0.46 ± 0.18
19 | AGGAAGCAAUAUUACGCAUC |  | -1.85 ± 0.41
20 | UGCGAGCAAUAUUACGCAUU | -5.15 ± 0.34 | -3.1 ± 0.23
21 | CUGGAGCAAUAUUACGUGGA | -1.96 ± 0.23 | -2.63 ± 0.48
22 | CGCGAGCAAUAUUACGAUUA | -3.1 ± 0.3 | -1.99 ± 0.35
23 | CCACAGCAAUAUUACGUCCA | -3.23 ± 0.19 | -1.59 ± 0.15
24 | CACUAGCAAUAUUACGGAAC |  | -1.93 ± 0.22
25 | CCGCAGCAAUAUUACGGCAC | -2.89 ± 0.21 | -2.91 ± 0.25

Row | Sequence | self-splicing fitness (ln) (30 °C) | self-splicing fitness (ln) (37 °C)
26 | AUGUAGCAAUAUUACGCGUA | -1.66 ± 0.13 | -0.708 ± 0.14
27 | UCGGAGCAAUAUUACGAAAC | -2.87 ± 0.28 | 
28 | ACUAAGCAAUAUUACGAGCU | -0.626 ± 0.079 | -0.478 ± 0.087
29 | ACACAGCAAUAUUACGGCAU | -1.12 ± 0.049 | 0.227 ± 0.062
30 | CACGAGCAAUAUUACGCCUG | -3.26 ± 0.23 | -2.38 ± 0.17
31 | UCCGAGCAAUAUUACGACGG | -1.46 ± 0.11 | -0.111 ± 0.17
32 | CAUGAGCAAUAUUACGUGUG | -3.67 ± 0.17 | -3.09 ± 0.16
33 | ACGUAGCAAUAUUACGAAUU | -1.42 ± 0.087 | -0.778 ± 0.11
34 | CUAGAGCAAUAUUACGCGAC | -0.657 ± 0.13 | 0.181 ± 0.16
35 | AGCUAGCAAUAUUACGGCCG | -0.198 ± 0.15 | 0.841 ± 0.19
36 | AAGAAGCAAUAUUACGUUUU | -3.3 ± 0.11 | -1.33 ± 0.091
37 | CUACAGCAAUAUUACGACAU | -3.878 ± 0.021 | -2.67 ± 0.037
38 | CCAUAGCAAUAUUACGUGUG | -2.23 ± 0.09 | -1.07 ± 0.08
39 | AGAAAGCAAUAUUACGCUAC | -3.25 ± 0.39 | 
40 | AGAGAGCAAUAUUACGCGUG | -3.83 ± 0.36 | -1.44 ± 0.18
41 | GCCAAGCAAUAUUACGGCGA | -1.18 ± 0.093 | -0.756 ± 0.095
42 | UCAGAGCAAUAUUACGUUCG | -1.54 ± 0.11 | -1.07 ± 0.15
43 | CUUCAGCAAUAUUACGUCAA | -1.25 ± 0.34 | 
44 | GUCUAGCAAUAUUACGGGUA | -1.28 ± 0.11 | -0.285 ± 0.09
45 | CAUUAGCAAUAUUACGUCAA | -2.38 ± 0.23 | -2.96 ± 0.4
46 | GUCAAGCAAUAUUACGAGUU | -3.15 ± 0.15 | -0.638 ± 0.093
47 | GUGGAGCAAUAUUACGAGAG | -3.58 ± 0.22 | -2.7 ± 0.38
48 | GACGAGCAAUAUUACGAAUG | -3.03 ± 0.2 | -2.31 ± 0.22
49 | CUCCAGCAAUAUUACGACAG | -1.4 ± 0.14 | -0.3 ± 0.14
50 | UGUUAGCAAUAUUACGCCUC |  | -0.642 ± 0.41
